Reference: patent US20250250335A1 (SHENGHE CHINA BIOPHARMACEUTICAL, published 2025)
Read-outs that look alike come from different tables or passages of the source. One block for each binder: values may come before it.

Columns and labels:
[1] = molecular target: T1, human CEACAM5-his (ACRO CE5-H5226) (human, UniProt P06731 35-685); test: SPR (Biacore), antibody captured on CM5 chip, antigen as analyte, 1:1 model
T1 construct: Bought protein; not shown: His tag
T1 sequence (looked up): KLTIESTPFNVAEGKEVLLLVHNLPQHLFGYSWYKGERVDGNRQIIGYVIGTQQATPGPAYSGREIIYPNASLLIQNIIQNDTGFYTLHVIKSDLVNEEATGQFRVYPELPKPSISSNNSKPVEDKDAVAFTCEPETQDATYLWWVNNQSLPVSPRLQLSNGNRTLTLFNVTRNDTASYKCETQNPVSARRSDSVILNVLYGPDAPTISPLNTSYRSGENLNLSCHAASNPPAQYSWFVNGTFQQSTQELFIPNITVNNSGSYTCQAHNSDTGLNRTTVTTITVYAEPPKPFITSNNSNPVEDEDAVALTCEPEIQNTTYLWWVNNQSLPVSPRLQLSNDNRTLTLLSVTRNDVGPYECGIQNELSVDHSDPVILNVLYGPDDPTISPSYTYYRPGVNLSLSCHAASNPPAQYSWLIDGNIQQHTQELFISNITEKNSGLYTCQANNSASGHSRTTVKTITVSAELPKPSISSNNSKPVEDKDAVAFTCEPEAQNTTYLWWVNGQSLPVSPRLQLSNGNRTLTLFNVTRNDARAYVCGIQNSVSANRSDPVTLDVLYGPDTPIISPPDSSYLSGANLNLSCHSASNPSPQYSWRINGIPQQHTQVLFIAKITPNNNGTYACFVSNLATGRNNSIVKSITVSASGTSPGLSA
Description: (§1) The CM5 sensor chip was activated at a flow rate of 10 μL/min for 420 seconds. The channel was then injected with 30 μg/mL of anti-rat Fc IgG in 10 mM NaAc (pH 4.5) at a flow rate of 10 μL/min. The chip was inactivated with 1 M ethanolamine-hydrochloric acid (GE) for 420 seconds at a flow rate of 10 μL/min.
(§2) Candidate antibodies in running buffer 1×HBS-EP+ (10 mM HEPES, 150 mM NaCl, 3 mM EDTA, 0.05% Tween 20, pH 7.4) were captured onto Fc2 with anti-rat Fc IgG at a flow rate of 10 μL/min. The 10 nM human CEACAM5-his protein or CEACAM-6-his or CEACAM6 (AB)-his protein and running buffer were sequentially injected into Fc1-Fc2 at a flow rate of […], bound for 180 seconds, and then dissociated for 3600 seconds. 10 mM glycine (pH 1.5) was injected as regeneration buffer after each dissociation.
(§3) Result plots for the reference channel Fc1 and the buffer channel were subtracted from the test result plots. The experimental data fit the 1:1 binding model. The molecular weight of 110 KDa was used to calculate the molar concentration of CEACAM5 protein, 55 KDa for human CEACAM6-his, and 55 KDa for human CEACAM6 (AB)-his.

[2] = molecular target: T2, human CEACAM6-his (ACRO CE6-H5223) (human, UniProt P40199 35-320); test: as above
T2 construct: Bought protein; not shown: His tag
T2 sequence (looked up): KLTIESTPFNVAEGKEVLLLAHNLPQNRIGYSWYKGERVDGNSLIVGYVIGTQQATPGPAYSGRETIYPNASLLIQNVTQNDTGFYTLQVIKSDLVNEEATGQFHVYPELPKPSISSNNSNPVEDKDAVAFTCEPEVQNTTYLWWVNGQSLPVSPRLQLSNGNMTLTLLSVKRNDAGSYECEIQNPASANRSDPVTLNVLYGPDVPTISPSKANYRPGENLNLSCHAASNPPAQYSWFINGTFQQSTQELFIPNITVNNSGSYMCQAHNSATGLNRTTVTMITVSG
Description: as §1, §2, §3

[3] = molecular target: T3, Human-CEACAM6 (AB)-His (human, UniProt P40199 145-314); test: as above
T3 construct: Made in house, purified on a nickel column
Description: as §1, §2, §3

[4] = molecular target: T3, Human-CEACAM6 (AB)-His; test: ELISA on coated human CEACAM6 (AB), OD450
Description: (§4) The binding activity of the antibodies to human CEACAM5, human CEACAM6, and human CEACAM6 (AB) proteins was detected by ELISA. The plate coated with proteins was incubated at 4° C. overnight, and the 96-well ELISA plate blocked with 2% PBS-BSA was added with the antibody to be detected and incubated at 37° C. for 1 h. After washing 3 times with PBS containing 0.05% Tween, the absorbance value of each well was read at wavelength 450 nm with the gradient-diluted mouse-derived candidate antibody as the primary antibody and anti-mouse-IgG-FC-HRP as the secondary antibody, and the absorbance value of each well was read at wavelength 450 nm after the TMB color development.

[5] = molecular target: T4, CEACAM5 on the surface of the tumor cells (HPAFII cells) (UniProt P06731 35-685); test: flow cytometry on HPAFII cells (Mean-FITC); the cells carry CEACAM5 and CEACAM6, signal not divided between the two
T4 construct: whole, on cells
T4 sequence (looked up): T1 sequence (looked up)
Description: (§5) The antibody to be tested was taken as the initial concentration of 200 nM and diluted 5-fold with 6 gradients. The HPAFII cells (From USTC […] FOR ADVANCED STUDIES) in the incubator were taken out, and the cell suspension was transferred to a 15 mL centrifuge tube, centrifuged, and counted by resuspension in PBS. A blank control group (Blank), a negative control group (NC), an experimental group, a positive control group and the irrelevant antibody group were kept. […] The cell suspension was spread in a 96-well plate according to about 3×10⁵ cells/well. Centrifugation (1000 rpm, 5 min) was performed, followed by washing with PBS, re-centrifugation, and repeated twice to remove media residues. The supernatant was discarded, 100 μL of primary antibody solution and irrelevant antibody solution were added to the experimental group and irrelevant antibody group, respectively, and the cells were resuspended and incubated at room temperature for 1 h. The blank group, and the negative control group were incubated with an equal amount of PBS.
(§6) After 1 h, PBS was added to wash twice. After the supernatant was discarded, 100 μL of fluorescent secondary antibody dilution (Mouse-derived secondary antibody from Abcam ab6785) was added to each sample group, except for the blank group which was added with 100 μL of PBS. After incubation at room temperature and protected from light for 0.5 h, centrifugation was performed and PBS added to wash the samples twice. After the supernatant was discarded, 120 μL of PBS was added to resuspend and sequentially flow cytometry was performed to detect the mean fluorescence intensity. The concentration of the antibody was logarithmically taken as the horizontal coordinate, and the Sigmoidaldose-response (VariableSlope) method (GraphPadPrism Software, GraphPadSoftware, San Diego, California) was chosen to perform a nonlinear regression to obtain the binding activity curves of the antibody on HPAFII cells.

[6] = molecular target: T5, CEACAM6 on the surface of the tumor cells (HPAFII cells) (UniProt P40199 35-320); test: as above
T5 construct: whole, on cells
T5 sequence (looked up): T2 sequence (looked up)
Description: as §5, §6

[7] = molecular target: T6, mouse CEACAM5 (mouse, UniProt Q3UKK2 35-947, limits assumed); test: ELISA on coated protein, OD450
T6 sequence (looked up): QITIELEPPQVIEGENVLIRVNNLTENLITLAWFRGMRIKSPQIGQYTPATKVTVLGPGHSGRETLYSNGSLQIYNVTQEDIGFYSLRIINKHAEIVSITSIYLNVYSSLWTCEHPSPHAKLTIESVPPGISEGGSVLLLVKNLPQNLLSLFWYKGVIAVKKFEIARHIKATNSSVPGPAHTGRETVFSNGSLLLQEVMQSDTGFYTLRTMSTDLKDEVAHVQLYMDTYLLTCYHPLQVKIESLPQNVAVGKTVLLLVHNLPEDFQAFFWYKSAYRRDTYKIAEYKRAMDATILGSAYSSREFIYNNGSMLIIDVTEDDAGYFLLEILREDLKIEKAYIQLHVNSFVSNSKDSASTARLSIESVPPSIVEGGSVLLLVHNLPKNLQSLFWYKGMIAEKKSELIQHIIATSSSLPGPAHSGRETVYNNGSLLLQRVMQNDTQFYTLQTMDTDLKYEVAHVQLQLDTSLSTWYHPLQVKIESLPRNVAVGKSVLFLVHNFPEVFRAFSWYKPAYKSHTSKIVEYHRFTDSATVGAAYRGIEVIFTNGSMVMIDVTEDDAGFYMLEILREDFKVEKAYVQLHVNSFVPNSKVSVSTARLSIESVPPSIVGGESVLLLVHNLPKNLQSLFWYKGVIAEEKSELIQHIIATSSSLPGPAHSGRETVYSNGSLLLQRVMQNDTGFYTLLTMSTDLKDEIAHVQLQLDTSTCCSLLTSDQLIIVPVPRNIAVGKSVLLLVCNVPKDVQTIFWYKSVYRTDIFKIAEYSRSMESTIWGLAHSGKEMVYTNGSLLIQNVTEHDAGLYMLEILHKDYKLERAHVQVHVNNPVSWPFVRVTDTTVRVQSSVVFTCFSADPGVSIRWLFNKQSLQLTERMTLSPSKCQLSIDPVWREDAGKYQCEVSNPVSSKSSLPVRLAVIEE
Description: The affinity of the antibodies to monkey CEACAM5, monkey CEACAM6, and mouse CEACAM5 proteins was determined by ELISA. The plates encapsulated with […] proteins were incubated at 4° C. overnight, and the antibodies to be detected were added to 96-well ELISA plates after being blocked with 2% PBS-BSA and incubated at 37° C. for 1 h. After washing 3 times with PBS containing 0.05% Tween, the absorbance value of each well was read at wavelength 450 nm with the antibody to be detected as the primary antibody and Goat anti-mouse IgG-FC-HRP as the secondary antibody, and the absorbance value of each well was read at wavelength 450 nm after the TMB color development. The specific binding to CEACAM5 and CEACAM6 of mouse and monkey was detected by Elisa method.

[8] = molecular target: T1, human CEACAM5-his (ACRO CE5-H5226); test: ELISA on coated human CEACAM5, OD450
Description: as §4

[9] = molecular target: T4, CEACAM5 on the surface of the tumor …; test: flow cytometry on HPAFII cells (Mean-FITC); the cells carry CEACAM5 and CEACAM6, signal not divided between the two; remark: listed apart in the source
Description: as §5, §6

[10] = molecular target: T5, CEACAM6 on the surface of the tumor …; test: as above; remark: listed apart in the source
Description: as §5, §6

T3 sequence (P40199 other isoform, or with tags, fused parts or gaps limits assumed): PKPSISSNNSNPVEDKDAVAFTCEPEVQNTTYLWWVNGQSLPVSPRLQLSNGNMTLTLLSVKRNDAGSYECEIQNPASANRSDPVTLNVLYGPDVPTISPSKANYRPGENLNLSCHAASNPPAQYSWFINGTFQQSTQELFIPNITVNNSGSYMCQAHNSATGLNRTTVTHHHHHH

B3: Antibody 7 (antibody, V domains shown)
VH: QIQLVQSGPELKKPGETVKISCKASGYTFTDYGMNWVKQAPGKGLKWMGWINTYTGEPTYPDDFKGRFAFSLETSATTAYLQINNLKNEDTATYFCSRGDLLVRLDNWGQGTTLTVSS
VL: DIQMTQSPSSLSASLGGKVTITCKASQDINKYISWYQHKPGKGPRLLIHYTSTLQSGIPSRFSGSGSGRDYSFSISNLEPEDIATYYCLQYDYLRTFGGGTKLEIK
notes: Mouse-derived hybridoma antibody; also called mouse-derived antibody 7
EC50 (read off the curve) [4]: ~0.01 µg/mL | EC50 (read off the curve) [5]: ~2 nM | EC50 (read off the curve) [6]: ~2 nM

B4: Antibody 10 (antibody, V domains shown)
VH: QVQLQQSGPELVRPGVSVKISCKGSGYTFTDFAMHWVRQSHSKSLEWVGIITTYGGDTNYNQKFRGKATMTVDRSSSTVFLELARLTSEDSAIYYCARNRAYRFFYAMDYWGQGTSVTVSS
VL: DIQMTQSPASLSASVGETVTITCGASENIYGALNWYQRKQGKSPHLLIYGATNLADGMSSRFSGSGSAGQYSLNISSLHPDDVATYYCQNVLFAPYTFGGGTRLEIK
notes: Mouse-derived hybridoma antibody; also called mouse-derived antibody 10
OD [7]: 0.15 OD | EC50 (read off the curve) [8]: ~0.009 µg/mL | EC50 (read off the curve) [9]: ~7 nM | EC50 (read off the curve) [10]: ~7 nM

Further lines, results first:

Kd [1]: 7.64 nM | Kd [2]: 3.83 nM | Kd [3]: < 0.001 nM
B1: Antibody 15 (antibody, V domains shown)
VH: QVQLQQPGAELVKPGASVTLSCKASGYTFTSYWINWVKQRPGQGLEWIGNIYPYTSSSNYNEKFKGKATLTVDTSSNTAYMQLSGLTSDDSAVYFCARKGNIYYSYESYPLDFWGQGTSVTVSS
VL: DIQMTQSSSSFSVSLGDRVTITCKASEDIYKQIGWYQQKPGNAPRLLIAGATSLETGVPSRFSGSGSGKDYMLNITSLQTEDVGSYYCQQYWSPPFTFGSGTKLEIK
notes: Mouse-derived hybridoma antibody; also called mouse-derived antibody 15

Kd [1]: < 0.001 nM | Kd [2]: 19.7 nM | Kd [3]: 117 nM
B2: Antibody B (antibody, human IgG1, kappa, V domains shown)
VH: EVQLVESGGGLVQPGGSLRLSCAASEFTLIDYYMSWVRQAPGKGLEWVGYIRNKVNGHTTDYIASVKGRFTISRDDSKNSLYLQMNSLKTEDTAVYYCARDPGINWYFDVWGQGTLVTVSS
VL: EIVLTQSPATLSLSPGERATLSCRASSRVTYMHWYQQKPGQSPRPLISATSNLASGIPARFSGSGSGTDYTLTISSLEPEDFAVYYCQQWSYNPPTFGGGTKLELKR
notes: Humanized form of mouse-derived antibody 2 on a human IgG framework; also called humanized antibody B

OD [7]: 0.15 OD | EC50 (read off the curve) [8]: ~0.03 µg/mL | EC50 (read off the curve) [4]: ~0.02 µg/mL | Kd [1]: 1.36 nM | Kd [2]: 37.4 nM | Kd [3]: 4.51 nM
B5: Antibody 13 (antibody, V domains shown)
VH: EVKLVESGGGLVQPGGSLSLSCTASGFTLTDYYMSWVRQPPGRALEWLALIRNKVNGYTIEYSASVKGRFTISRDNSQSILYLQMNALRAEDSATYYCARDIGIRWYFDVWGAGTTVTVSS
VL: QIVLSQSPAILSASPGEKVTMTCRASSSVSYMHWYQQKPGSSPKPWIYATSNLASGVPARFSGSGSGTSYSLTISRMEAEDAATYYCQQWSGNPPTFGGGTKLEIK
notes: Mouse-derived hybridoma antibody; also called mouse-derived antibody 13
